Starred links: 1 amine or outer side, 2 acyl side, 3 side chain; linkers in the order of their positions; H or OH if unused. Non-standard residues stand in square brackets, D forms with d. Primed or numbered codes have the meaning given here. No end group written: not given here. Asuha″ = L-2-amino-8-(hydroxyamino)-8-oxooctanoic acid, O=C(CCCCC[C@H](N[*:1])C(=O)[*:2])NO; Asuha = 2-aminosuberic acid hydroxamate, O=C(CCCCC[C@H](N[*:1])C(=O)[*:2])NO[*:3]
Assays:
Assay in all cases: Recombinant HDAC µSPOT microarray binding assay;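 as to Bottom (Value): relative spot intensity from the six enzyme-concentration slides imaged together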;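 as to Bottom (dose-response curve fit): peptide spots on cellulose slides incubated with rising HDAC enzyme concentrations, imaged together, four-parameter logistic fit, EC50 is enzyme concentration giving half-maximal binding signal, two experiments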;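 as to Bottom (dose-response fit): slides with spotted peptides incubated with six HDAC concentrations in HEPES buffer pH 7.4, spot intensities fitted by four-parameter logistic, EC50 as enzyme concentration giving half-maximal binding signal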;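 as to LogEC50 (M): peptide spots on cellulose slides incubated with rising HDAC enzyme concentrations, imaged together, four-parameter logistic fit, EC50 is enzyme concentration giving half-maximal binding signal, two experiments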;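 as to Top (Value): relative spot intensity from the six enzyme-concentration slides imaged together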;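 as to Top (dose-response curve fit): peptide spots on cellulose slides incubated with rising HDAC enzyme concentrations, imaged together, four-parameter logistic fit, EC50 is enzyme concentration giving half-maximal binding signal, two experiments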;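 as to Top (dose-response fit): slides with spotted peptides incubated with six HDAC concentrations in HEPES buffer pH 7.4, spot intensities fitted by four-parameter logistic, EC50 as enzyme concentration giving half-maximal binding signal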
HDAC2 = biological target: T1, HDAC2 (Homo sapiens, UniProt Q92769); settings: for Bottom (Value) / Top (Value) / HillSlope (Value): HDAC2 microarray dose-response curve fit, X = Asuha, sheet Fig. 3 HDAC2; for Bottom (Value): bottom plateau; for Top (Value): top plateau; for Bottom / HillSlope / Top: dose-response fit parameter, µSPOT microarray, H4 K12X (X = Asuha) peptides, HDAC2;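 as to Bottom (Value): relative spot intensity from the six enzyme-concentration slides imaged together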;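 as to Top (Value): relative spot intensity from the six enzyme-concentration slides imaged together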;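 as to all read-outs here: Cellulose-bound peptide spots on slides incubated with six HDAC enzyme concentrations, binding intensity read, four-parameter variable-slope fit, EC50 is enzyme concentration giving half-maximal binding, in HEPES buffer pH 7.4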
T1 construct: HDAC2 (full length, C-terminal His tag, BPS Bioscience, cat. #: 50002); purchased BPS Bioscience 50002
T1 sequence (Q92769 whole entry): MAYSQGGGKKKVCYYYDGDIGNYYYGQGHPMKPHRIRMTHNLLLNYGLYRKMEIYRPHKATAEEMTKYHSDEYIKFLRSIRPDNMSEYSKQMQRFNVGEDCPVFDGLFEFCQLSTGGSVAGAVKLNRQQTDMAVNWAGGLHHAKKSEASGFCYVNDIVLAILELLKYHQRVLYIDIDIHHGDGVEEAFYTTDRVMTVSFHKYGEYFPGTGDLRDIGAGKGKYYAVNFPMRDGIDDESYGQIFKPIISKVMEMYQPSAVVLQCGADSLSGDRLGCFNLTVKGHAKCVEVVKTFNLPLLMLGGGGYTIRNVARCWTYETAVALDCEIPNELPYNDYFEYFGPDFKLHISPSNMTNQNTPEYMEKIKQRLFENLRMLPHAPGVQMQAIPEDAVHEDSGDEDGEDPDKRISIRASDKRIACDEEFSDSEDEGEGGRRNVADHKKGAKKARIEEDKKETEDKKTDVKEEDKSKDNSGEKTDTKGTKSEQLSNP

HDAC1 = biological target: T2, HDAC1 (Homo sapiens, UniProt Q13547); settings: µSPOT microarray; for Bottom (dose-response fit): fitted bottom plateau of the binding curve; for Top (dose-response fit): fitted top plateau of the binding curve;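 as to all read-outs here: slides with spotted peptides incubated with six HDAC concentrations in HEPES buffer pH 7.4, spot intensities fitted by four-parameter logistic, EC50 as enzyme concentration giving half-maximal binding signal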
T2 construct: HDAC1 (full length, C-terminal His tag, C-terminal FLAG tag, BPS Bioscience, cat. #: 50051); FLAG (C); purchased BPS Bioscience 50051
T2 sequence (Q13547 whole entry): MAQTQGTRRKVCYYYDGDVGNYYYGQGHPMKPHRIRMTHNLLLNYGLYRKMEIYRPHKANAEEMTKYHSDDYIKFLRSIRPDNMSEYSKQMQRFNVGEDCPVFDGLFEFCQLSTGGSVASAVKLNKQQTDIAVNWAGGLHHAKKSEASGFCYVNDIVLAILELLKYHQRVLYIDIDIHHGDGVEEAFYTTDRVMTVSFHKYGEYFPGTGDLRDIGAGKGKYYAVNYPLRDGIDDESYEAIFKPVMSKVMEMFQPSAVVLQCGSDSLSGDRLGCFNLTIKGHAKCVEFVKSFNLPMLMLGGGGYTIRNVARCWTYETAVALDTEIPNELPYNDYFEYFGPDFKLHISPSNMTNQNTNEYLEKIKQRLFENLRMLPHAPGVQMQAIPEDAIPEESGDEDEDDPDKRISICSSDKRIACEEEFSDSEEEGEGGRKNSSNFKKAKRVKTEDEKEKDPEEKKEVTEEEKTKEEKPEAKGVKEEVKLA

HDAC8 = biological target: T3, HDAC8 (Homo sapiens, UniProt Q9BY41); settings: for HillSlope (Value): Hill slope of the µSPOT microarray dose-response fit; for HillSlope (Value) / Bottom (Value) / Top (Value): X = Asuha peptides; for Bottom (Value): fitted bottom of the µSPOT microarray dose-response curve; for Top (Value): fitted top of the µSPOT microarray dose-response curve;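 as to all read-outs here: peptide µSPOT slides incubated with varying HDAC enzyme concentrations, imaged signal intensity fitted by four-parameter variable-slope regression, EC50 is enzyme concentration giving half-maximal binding, pH 7.4 HEPES buffer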
T3 construct: HDAC8 (full length, C-terminal His tag, BPS Bioscience, cat. #: 50008); purchased BPS Bioscience 50008
T3 sequence (Q9BY41 1-377): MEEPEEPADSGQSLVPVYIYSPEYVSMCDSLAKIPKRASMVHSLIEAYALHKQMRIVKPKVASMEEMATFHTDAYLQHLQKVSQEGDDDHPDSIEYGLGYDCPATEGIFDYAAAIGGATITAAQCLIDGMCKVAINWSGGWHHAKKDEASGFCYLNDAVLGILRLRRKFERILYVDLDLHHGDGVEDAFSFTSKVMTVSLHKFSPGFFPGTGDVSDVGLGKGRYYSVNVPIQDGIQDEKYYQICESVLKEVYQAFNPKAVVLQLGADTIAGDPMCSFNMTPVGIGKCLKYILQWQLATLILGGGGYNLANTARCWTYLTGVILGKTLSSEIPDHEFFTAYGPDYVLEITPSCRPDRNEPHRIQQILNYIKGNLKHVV

HDAC3/NCoR2 = biological target: T4, HDAC3/NCoR2 (Homo sapiens, UniProt O15379); settings: for Bottom (dose-response curve fit): fitted bottom plateau of binding signal; for Top (dose-response curve fit): fitted top plateau of binding signal; for LogEC50 (M): log of EC50 in M, dose-response fit;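 as to all read-outs here: peptide spots on cellulose slides incubated with rising HDAC enzyme concentrations, imaged together, four-parameter logistic fit, EC50 is enzyme concentration giving half-maximal binding signal, two experiments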
T4 construct: HDAC3/NCoR2 (full length, C-terminal His tag, NCoR2 N-terminal GST tag); purchased BPS Bioscience 50003
T4 sequence (O15379 whole entry): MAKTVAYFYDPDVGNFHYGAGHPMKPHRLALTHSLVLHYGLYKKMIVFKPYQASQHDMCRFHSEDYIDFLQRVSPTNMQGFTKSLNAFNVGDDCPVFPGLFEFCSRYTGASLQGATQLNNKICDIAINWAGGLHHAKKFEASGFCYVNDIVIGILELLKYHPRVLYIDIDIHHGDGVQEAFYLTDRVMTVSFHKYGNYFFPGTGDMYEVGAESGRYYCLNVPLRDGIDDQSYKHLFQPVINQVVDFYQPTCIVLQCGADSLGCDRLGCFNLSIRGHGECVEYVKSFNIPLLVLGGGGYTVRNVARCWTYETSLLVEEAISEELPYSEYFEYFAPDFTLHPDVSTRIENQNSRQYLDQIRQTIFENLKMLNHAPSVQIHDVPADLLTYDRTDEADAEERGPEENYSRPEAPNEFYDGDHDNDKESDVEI
T4 sequence (Q9Y618 389-480 partner limits assumed): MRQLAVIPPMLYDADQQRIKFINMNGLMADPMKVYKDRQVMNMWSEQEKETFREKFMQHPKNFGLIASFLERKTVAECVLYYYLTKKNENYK

[1] = recombinant HDAC1, Fig. 3, X = Asuha, Hill slope of the binding curve
[2] = recombinant HDAC1, Fig. 3, X = Asuha
[3] = HDAC8 µSPOT microarray dose-response fit, Bottom Value, X = Asuha, sheet Fig. 3 HDAC8
[4] = HDAC8 µSPOT microarray dose-response fit, HillSlope Value, X = Asuha, sheet Fig. 3 HDAC8
[5] = HDAC8 µSPOT microarray dose-response fit, Top Value, X = Asuha, sheet Fig. 3 HDAC8
[6] = HDAC3 µSPOT microarray, Fig. 3, Hill slope of dose-response fit, X = Asuha
[7] = HDAC3 µSPOT microarray, Fig. 3, X = Asuha
[8] = dose-response fit parameter, H4 K12X (X = Asuha) peptides, HDAC1
[9] = dose-response fit parameter, µSPOT microarray, H4 K12X (X = Asuha) peptides, HDAC8
[10] = dose-response fit parameter, µSPOT microarray, H4 K12X (X = Asuha) peptides, HDAC3
[11] = µSPOT microarray, H4 K12X (X = Asuha) peptides, HDAC3

Row | Bottom (Value) (HDAC2) | Top (Value) (HDAC2) | HillSlope (Value) (HDAC2) | HillSlope (HDAC1; [1]) | Bottom (dose-response fit) (HDAC1; [2]) | Top (dose-response fit) (HDAC1; [2]) | Bottom (HDAC8; [3]) | HillSlope (HDAC8; [4]) | Top (HDAC8; [5]) | HillSlope (HDAC3/NCoR2; [6]) | Bottom (dose-response curve fit) (HDAC3/NCoR2; [7]) | Top (dose-response curve fit) (HDAC3/NCoR2; [7]) | Substance | other results
1 | 0.01 | 27.24 | 0.62 | 1.25 | 0.02 | 0.24 | 0.02 | 0.58 | 21.03 | 1.43 | 0.01 | 0.51 | H2A 46-61 (GAPVYLAAVLEYLTAE; UniProt P0C0S8 47-62, looked up, fragment) | 
2 | 0.02 | 0.44 | 0.89 | 1.26 | 0.01 | 0.2 | 0.02 | 0.49 | 6.68 | 1.38 | 0 | 0.57 | H2A 49-64 (VYLAAVLEYLTAEILE; UniProt P0C0S8 50-65, looked up, fragment) | 
3 | 0.01 | 2.34 | 0.64 | 1.43 | 0.02 | 0.27 | 0.02 | 0.59 | 3.05 | 1.26 | 0 | 0.64 | H2A 55-70 (LEYLTAEILELAGNAA; UniProt P0C0S8 56-71, looked up, fragment) | 
4 | 0.02 | 40.23 | 1.01 | 1.08 | 0.02 | 19.1 | 0.02 | 7.17 | 0.12 | 1.48 | 0.01 | 0.69 | H2A 79-94 (IPRHLQLAIRNDEELN; UniProt P0C0S8 80-95, looked up, fragment) | 
5 | 0.02 | 9.23 | 0.88 | 1.46 | 0.02 | 0.26 | 0.02 | 0.63 | 7.44 | 1.35 | 0 | 0.72 | H2A 100-115 (VTIAQGGVLPNIQAVL; UniProt P0C0S8 101-116, looked up, fragment) | 
6 | 0.03 | 0.16 | 2.23 | 0.92 | 0.02 | 1.87 | 0.01 | 0.19 | 6.07 | 1.96 | 0.02 | 0.22 | H2B 58-73 (AMGIMNSFVNDIFERI; UniProt P06899 59-74, looked up, fragment) | 
7 | 0.02 | 0.12 | 1.69 | 1.29 | 0.03 | 1.15 | -0.5 | 0.02 | 0.56 | 1.99 | 0.01 | 0.17 | H2B 61-76 (IMNSFVNDIFERIAGE; UniProt P62807 62-77, looked up, fragment) | 
8 | 0.01 | 12.73 | 0.33 | 1.09 | 0.03 | 1.21 | 0.02 | 0.72 | 1.17 | 1.87 | 0.01 | 0.22 | H2B 64-79 (SFVNDIFERIAGEASR; UniProt P62807 65-80, looked up, fragment) | 
9 | 0.02 | 6.33 | 0.44 | 1.51 | 0.04 | 1.04 | 0.03 | 0.69 | 4.21 | 1.68 | 0.01 | 0.39 | H2B 67-82 (NDIFERIAGEASRLAH; UniProt P06899 68-83, looked up, fragment) | 
10 | 0.03 | 44.03 | 0.48 | 1.35 | 0.04 | 1.07 | 0.04 | 6.48 | 0.09 | 1.45 | 0.01 | 0.55 | H2B 91-106 (SREIQTAVRLLLPGEL; UniProt P62807 92-107, looked up, fragment) | 
11 |  |  |  |  |  |  |  |  |  |  |  |  | P10 (KGLG[Asuha]GGAK) | Bottom (HDAC2): 0.03; HillSlope (HDAC2): 1.44; Top (HDAC2): 0.39; Bottom (HDAC1; [8]): 0.02; HillSlope (HDAC1; [8]): 0.6; Top (HDAC1; [8]): 1.69; Bottom (HDAC8; [9]): 0.03; HillSlope (HDAC8; [9]): 10.49; Top (HDAC8; [9]): 0.13; Bottom (HDAC3/NCoR2; [10]): 0.06; HillSlope (HDAC3/NCoR2; [10]): 4.03; Top (HDAC3/NCoR2; [10]): 0.95; LogEC50 (M) (HDAC3/NCoR2; [11]): -8.87 M
12 |  |  |  |  |  |  |  |  |  |  |  |  | P12 (KGLGXGGA; K12 replaced by Asuha (X)) | Bottom (HDAC2): 0.02; HillSlope (HDAC2): 7.89; Top (HDAC2): 0.14; Bottom (HDAC1; [8]): 0.01; HillSlope (HDAC1; [8]): 0.67; Top (HDAC1; [8]): 0.47; HillSlope (Value) (HDAC8): 1.3; Bottom (Value) (HDAC8): 0.02; Top (Value) (HDAC8): 0.58; Bottom (HDAC3/NCoR2; [10]): 0.04; HillSlope (HDAC3/NCoR2; [10]): 2.48; Top (HDAC3/NCoR2; [10]): 0.98; LogEC50 (M) (HDAC3/NCoR2; [11]): -8.71 M
13 |  |  |  |  |  |  |  |  |  |  |  |  | P13 (GLG[Asuha″]GGA) | Bottom (HDAC2): 0.01; HillSlope (HDAC2): 8.37; Top (HDAC2): 0.04; Bottom (HDAC1; [8]): 0.02; HillSlope (HDAC1; [8]): 0.73; Top (HDAC1; [8]): 0.36; HillSlope (Value) (HDAC8): 17.49; Bottom (Value) (HDAC8): 0.01; Top (Value) (HDAC8): 0.03; Bottom (HDAC3/NCoR2; [10]): -0.01; HillSlope (HDAC3/NCoR2; [10]): 0.48; Top (HDAC3/NCoR2; [10]): 24.94

Source: paper PMC7782793, “Hydroxamic acid-modified peptide microarrays for profiling isozyme-selective interactions and inhibition of histone deacetylases” (Nature Communications, 2021)
